Results reported in the supplement of paper PMC10567573.

B1: IQUB (parent)
chain: KIREKEEWIKLDYHRRHNPKTNED

Variants of: B1
Assay: protein stability index of a GFP-peptide fusion (GPS, HEK-293T) (PSI 1-6); higher = more stable
Conditions: c terminus: a fixed tail appended
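Note: lentivirally expressed fusions sorted by FACS into six bins by GFP to DsRed ratio, PSI derived from sequencing read proportions per bin multiplied by bin number.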

Protein stability index of substitutions, site by site:
E6: S 4.03; G 3.96; R 4.66; L 2.7; W 2.61; N 4.52; M 3.69; Q 4.47; H 3.98; C 4.35; F 3.56; P 3.58; K 3.98; A 3.32; V 3.63; Y 2.88; T 4.41; D 4.31
I2: E 5.32; V 4.67; F 4.19; Y 4.2; K 4.8; S 5.09; G 5.25; D 5.17; Q 4.14; R 4.58; T 4.69; P 3.84; A 4.88; W 4.26; L 4.74; M 4.72; N 5; C 4.62; H 4.91
K1: V 4.52; I 4.02; L 4.15; S 4.62; Y 2.98; C 4.07; R 4.68; G 5.15; W 3.75; H 4.62; T 4.87; Q 4.96; N 5.44; M 4.14; A 4.79; D 4.99; F 2.67; E 4.62; P 4.99
W8: R 4.91; D 5.13; M 5.1; C 4.93; S 5.41; P 5.25; V 5.07; L 4.94; A 5.18; Q 5.58; K 5.19; H 4.99; E 4.69; T 5.19; G 5.54; I 4.24; Y 5.13; F 4.24; N 5.03
E4: G 3.85; W 3.75; N 4.67; C 3.71; V 3.32; F 3.84; I 4; Y 4.03; Q 3.82; K 3.86; R 3.99; M 4.06; T 4; D 4.48; P 4.02; H 4.32; A 4.38; L 3.81; S 3.95
E7: D 4.48; R 3.51; T 4.37; I 3.36; K 4.03; N 4.45; G 3.8; Q 4.19; V 3.99; M 3.27; C 4.61; Y 3.31; H 4.34; W 3.46; L 2.68; A 4.74; F 3.34; P 3.6; S 4.46
I9: F 3.96; P 4.94; Q 5.24; E 5.25; K 5.13; M 4.75; C 4.12; A 5.24; G 5.35; V 4.86; D 5.22; S 4.62; L 4.66; T 5.1; N 5.07; H 4.45
K5: E 4.45; W 3.74; N 4.7; Y 3.92; Q 4.93; C 4.09; G 4.6; D 4.51; H 4.51; P 4.63; F 3.67; S 4.14; T 4.21; V 3.4; R 4.64; I 2.39; L 3.13; A 3.99; M 3.04
R3: L 4.22; N 4.72; K 4.67; V 4.52; F 4.3; E 5.08; C 4.8; D 5.34; W 4.21; I 4.35; Y 4.29; S 4.6; A 5.05; T 4.61; Q 4.6; G 5.16; P 4.97; M 4.02; H 4.67
